# Results published in patent US20220177587A1, “METHODS AND USES OF VARIANT CD80 FUSION PROTEINS AND RELATED CONSTRUCTS” (Alpine Immune Sciences, Inc., priority 2018, published 2022).
# Read-outs that look alike come from different tables or passages of the source.
# Experiments:
# PD-L1 (human) [1] = target: PD-L1 (human) (UniProt Q9NZQ7)
# CD28 (human) [2] = target: CD28 (human) (UniProt P10747)
# CD28 (human) [3] = target: CD28 (human) (UniProt P10747); remark: listed apart in the source
# PD-L1 (human) [4] = target: PD-L1 (human) (UniProt Q9NZQ7); remark: listed apart in the source
# Chain of PD-L1 (human) (Q9NZQ7 19-290): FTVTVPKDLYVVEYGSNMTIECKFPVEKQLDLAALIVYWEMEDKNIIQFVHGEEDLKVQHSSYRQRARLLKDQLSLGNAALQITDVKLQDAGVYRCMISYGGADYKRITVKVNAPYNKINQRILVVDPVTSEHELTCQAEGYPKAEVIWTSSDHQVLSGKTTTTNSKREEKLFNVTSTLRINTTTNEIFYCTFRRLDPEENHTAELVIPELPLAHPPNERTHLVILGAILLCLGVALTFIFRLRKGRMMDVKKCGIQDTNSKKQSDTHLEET
Substance,"Jurkat/IL2 reporter RLU at 50 nM, K562/OKT3/PD-L1 aAPC (PD-L1 (human) [1]) [RLU]","Jurkat/IL2 reporter RLU at 50 nM, K562/OKT3/PD-L1 aAPC (CD28 (human) [2]) [RLU]","Jurkat/IL2 reporter RLU at 50 nM, K562/OKT3/PD-L1 aAPC (CD28 (human) [3]) [RLU]","Jurkat/IL2 reporter RLU at 50 nM, K562/OKT3/PD-L1 aAPC (PD-L1 (human) [4]) [RLU]"
CD80 E35D/M38T/D46E/M47V/N48S IgV-Fc (inert) (Fc fusion),1320,1320,–,–
WT CD80-ECD-Fc (effector) (Fc fusion),–,1790,3040,–
CD80 Q33L/E35D/M47I/N48D/A71G IgV-Fc (inert) (Fc fusion),213,213,–,–
CD80 E35D/T41S/M43I/M47V/A71G IgV-Fc (inert) (Fc fusion),1270,1270,–,–
CD80 E35D/M43I/M47V/K89N IgV-Fc (inert) (Fc fusion),1090,1090,–,–
CD80 H18Y/V22A/E35D/M47V/T62S/A71G IgV-Fc (inert) (Fc fusion),1380,1380,–,–
CD80 Q33L/E35D/M43I/Y53F/T62S/L85Q IgV-Fc (inert) (Fc fusion),168,168,–,–
CD80 E35D/T41S/M43I/A71G/D90G IgV-Fc (inert) (Fc fusion),1120,1120,–,–
CD80 E35D/L85Q/K93T/E95V/L97Q IgV-Fc (inert) (Fc fusion),315,315,–,–
CD80 H18Y/Y31H/E35D/M47V/A71G/L85Q IgV-Fc (inert) (Fc fusion),–,–,455,455
CD80 Q27H/Q33L/E35D/M47V/N55D/L85Q/K89N IgV-Fc (inert) (Fc fusion),–,–,551,551
CD80 Q33L/E35D/M47V/L85Q IgV-Fc (inert) (Fc fusion),–,–,556,556
CD80 E35D/M47V/A71G/E88D IgV-Fc (inert) (Fc fusion),1220,1220,–,–
CD80 Q33L/E35D/M47L/A71G/F92S IgV-Fc (inert) (Fc fusion),–,–,394,394

# More lines, now with the values ahead:
"Jurkat/IL2 reporter RLU at 50 nM, K562/OKT3/PD-L1 aAPC (PD-L1 (human) [1]) [RLU]","Jurkat/IL2 reporter RLU at 50 nM, K562/OKT3/PD-L1 aAPC (CD28 (human) [2]) [RLU]","Jurkat/IL2 reporter RLU at 50 nM, K562/OKT3/PD-L1 aAPC (CD28 (human) [3]) [RLU]","Jurkat/IL2 reporter RLU at 50 nM, K562/OKT3/PD-L1 aAPC (PD-L1 (human) [4]) [RLU]",Substance
1120,1120,–,–,CD80 V22L/Q27H/E35D/M47I/A71G IgV-Fc (inert) (Fc fusion)
683,683,–,–,CD80 E35D/D46E/M47V/A71D IgV-Fc (inert) (Fc fusion)
1580,1580,–,–,CD80 E35D/M47I/Y87Q/K89E IgV-Fc (inert) (Fc fusion)
227,227,–,–,CD80 R29H/E35D/M43V/M47I/I49V IgV-Fc (inert) (Fc fusion)
1190,1190,–,–,CD80 E35D/M47V/A71G IgV-Fc (inert) (Fc fusion)
1720,1720,–,–,CD80 E35D/Y53H/A71G/D90G/L97R IgV-Fc (inert) (Fc fusion)
1140,1140,–,–,CD80 V22D/E35D/M47L/L85Q IgV-Fc (inert) (Fc fusion)
215,215,–,–,CD80 Q33R/E35D/M47V/N48K/L85M/F92L IgV-Fc (inert) (Fc fusion)
1440,1440,–,–,CD80 E35D/M47V/N48K/V68M/K89N IgV-Fc (inert) (Fc fusion)
–,–,526,526,CD80 A26E/E35D/M43T/M47L/L85Q/R94Q IgV-Fc (inert) (Fc fusion)
–,–,554,554,CD80 Q33L/E35D/D46E/M47I IgV-Fc (inert) (Fc fusion)
–,–,533,533,CD80 Q33L/E35D/T41S/M43I IgV-Fc (inert) (Fc fusion)
594,594,–,–,CD80 E35D/T41S/M47V/L97Q IgV-Fc (inert) (Fc fusion)
1750,1750,–,–,CD80 A26E/E35D/M47L/A71G IgV-Fc (inert) (Fc fusion)
1500,1500,–,–,CD80 I30V/E35D/M47V/A71G/A91V IgV-Fc (inert) (Fc fusion)
